According to patent US20240272170A1 (QUANTUM SI, published 2024):

Experiments:
[1] = target: T1, QP1165 after cleavage to N-terminal isoleucine (IAFLKQRVWK); test: on-chip dynamic sequencing of QP1165, PS1875 run, trace Aperture=340501
T1 peptide: IAFLKQRVWK

[2] = target: T2, QP1165 after cleavage to N-terminal leucine (LKQRVWK); test: as above
T2 peptide: LKQRVWK

[3] = target: T1, QP1165 after cleavage to N-terminal …; test: on-chip dynamic sequencing of QP1165, PS2132 run, trace Aperture=376215
[4] = target: T2, QP1165 after cleavage to N-terminal …; test: on-chip dynamic sequencing of QP1165, PS1875 run, trace Aperture=430641
[5] = target: T1, QP1165 after cleavage to N-terminal …; test: on-chip dynamic sequencing of QP1165, PS2121 run, trace Aperture=740473
[6] = target: T2, QP1165 after cleavage to N-terminal …; test: as above
[7] = target: T1, QP1165 after cleavage to N-terminal …; test: on-chip dynamic sequencing of QP1165, PS2123 run, trace Aperture=501326
[8] = target: T2, QP1165 after cleavage to N-terminal …; test: as above
[9] = target: T2, QP1165 after cleavage to N-terminal …; test: on-chip dynamic sequencing of QP1165, PS2132 run, trace Aperture=1826247
[10] = target: T1, QP1165 after cleavage to N-terminal …; test: on-chip dynamic sequencing of QP1165, PS1875 run, trace Aperture=1311609
[11] = target: T1, QP1165 after cleavage to N-terminal …; test: on-chip dynamic sequencing of QP1165, PS2123 run, trace Aperture=1168773
[12] = target: T2, QP1165 after cleavage to N-terminal …; test: as above
[13] = target: T1, QP1165 after cleavage to N-terminal …; test: on-chip dynamic sequencing of QP1165, 500 nM PS1875 plus five recognizers, 7305 alignments
[14] = target: T1, QP1165 after cleavage to N-terminal …; test: on-chip dynamic sequencing of QP1165, 500 nM PS1875 plus five recognizers, 3369 alignments
[15] = target: T2, QP1165 after cleavage to N-terminal …; test: as above
[16] = target: T1, QP1165 after cleavage to N-terminal …; test: on-chip dynamic sequencing of QP1165, 500 nM PS2121 plus five recognizers, 15527 alignments
[17] = target: T2, QP1165 after cleavage to N-terminal …; test: as above
[18] = target: T1, QP1165 after cleavage to N-terminal …; test: on-chip dynamic sequencing of QP1165, 500 nM PS1875 plus five recognizers, 11565 alignments
Experimental: (§1) The semiconductor chip was placed in the sequencing device and a chip check was performed to test electronic circuit function and to optimize laser coupling alignment. The chip was then removed from the device socket and the chip was washed twice with 50 μL of 70% isopropanol, followed by four washes with 30 μL of wash buffer (50 mM MOPS pH 8.0, 60 mM potassium acetate, 50 mM glucose, 20 mM magnesium acetate, and surfactant mix) through a flow cell attached to the chip. A second chip check was then performed. The laser was then blocked via an integrated software-controlled shutter, peptide complex was added to a final concentration of 1-10 nM and mixed thoroughly, and the chip was incubated for 15 min. The chip was then washed six times with wash buffer, followed by addition of an imaging solution (wash buffer with 5 mM Trolox and an oxygen scavenging system). The laser was unblocked and the occupancy percentage (target 10-30%, Poisson distributed) was recorded by acquiring a photobleaching signal from a fluorophore attached to the peptide complex during 5 min of laser illumination. […] Data was recorded for 15 min. The laser was then blocked briefly and aminopeptidases were added to the sequencing reaction via the flow cell and mixed thoroughly (final concentration 2-8 μM PhTET2 and/or 20-80 μM PhTET3, as indicated according to the experiment). The laser was then unblocked, and data was recorded for 10 hours. For all runs, 30 μL of mineral oil was added to fluid reservoirs at each port of the flow cell to prevent evaporation during the run.

[19] = target: T2, QP1165 after cleavage to N-terminal …; test: as above
Experimental: as §1

[20] = target: T1, QP1165 after cleavage to N-terminal …; test: on-chip dynamic sequencing of QP1165, 500 nM PS2123 plus five recognizers, 62511 alignments
[21] = target: T2, QP1165 after cleavage to N-terminal …; test: as above

- PD of a recognition segment in an example trace [1]: 0.49 s
- PD of a recognition segment in an example trace [2]: 0.36 s
- PD of a recognition segment in an example trace [3]: 0.49 s
- PD of a recognition segment in an example trace [4]: 0.64 s
- PD of a recognition segment in an example trace [5]: 0.5 s
- PD of a recognition segment in an example trace [6]: 0.49 s
- PD of a recognition segment in an example trace [7]: 0.51 s
- PD of a recognition segment in an example trace [8]: 0.39 s
- PD of a recognition segment in an example trace [9]: 0.52 s
- PD of a recognition segment in an example trace [10]: 0.61 s
- PD of a recognition segment in an example trace [11]: 0.53 s
- PD of a recognition segment in an example trace [12]: 0.39 s
- IPD (interpulse duration) [13]: 8.02 s
- PD (pulse duration) [13]: 1.15 s
- IPD (interpulse duration) [14]: 7.33 s
- PD (pulse duration) [14]: 1.18 s
- IPD (interpulse duration) [15]: 15.3 s
- PD (pulse duration) [15]: 0.66 s
- IPD (interpulse duration) [16]: 8.64 s
- PD (pulse duration) [16]: 0.7 s
- IPD (interpulse duration) [17]: 16.6 s
- PD (pulse duration) [17]: 0.63 s
- IPD (interpulse duration) [18]: 8.79 s
- PD (pulse duration) [18]: 1.01 s
- IPD (interpulse duration) [19]: 17.1 s
- PD (pulse duration) [19]: 0.59 s
- IPD (interpulse duration) [20]: 9.24 s
- PD (pulse duration) [20]: 0.73 s
- IPD (interpulse duration) [21]: 17.3 s
- PD (pulse duration) [21]: 0.54 s
B1: PS1223 (designed binder)
single polypeptide, two PS961 units in tandem: MPTAASATESAIEDTPAPARPEVDGRTKPKRQPRYHVVLWDDDDHTYQYVVVMLRSLFGHPPSRGYRMAKEMDTQGRVIVLTTTREHAELKRDQIHAFGRDRLLARSKGSMKASIEAEEGSAGSAAGSGEFGSAGSAAGSGEFGSAGSAAGSGEFMPTAASATESAIEDTPAPARPEVDGRTKPKRQPRYHVVLWDDDDHTYQYVVVMLRSLFGHPPSRGYRMAKEMDTQGRVIVLTTTREHAELKRDQIHAFGRDRLLARSKGSMKASIEAEE
notes: dye-labelled recognizer for N-terminal L, I, V in the six-recognizer runs; also called PS1223 (LIV)
